± gives the standard deviation of the averaged measurements.
Test system: Saccharomyces cerevisiae
Assay: protein stability index of tFT-peptide fusion (C-terminal peptide) (PSI (0-1 scale)); higher = more stable (slower turnover)
Conditions: temperature: 30 C
Procedure: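 MPS profiling in S. cerevisiae of the yeast C-terminome library: the last 12 aa of each annotated ORF are fused to the C-terminus of a sfGFP-mCherry timer, after a GGGS linker. Cells are FACS-sorted into 8 mCherry/sfGFP bins and deep-sequenced. PSI runs from 0 (unstable) to 1 (stable); wild type and das1Δ backgrounds, two technical replicates each.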

[1] = genetic background: das1 deletion

## GAPSLYSYLLCL [IRC2 C-terminal 12 aa]
[1]
  protein stability index: 0.684 ± 0.0082
Genetic background: wild type
  protein stability index: 0.487 ± 0.019

## ARGAGGFGSTGN [DUT1 C-terminal 12 aa]
[1]
  protein stability index: 0.697 ± 0.0079
Genetic background: wild type
  protein stability index: 0.7208 ± 0.0062

## VMDDIISELTNE [KRE28 C-terminal 12 aa]
[1]
  protein stability index: 0.713 ± 0.019
Genetic background: wild type
  protein stability index: 0.687 ± 0.046

## VLLTAYKKLLTK [KEG1 C-terminal 12 aa]
[1]
  protein stability index: 0.685 ± 0.021
Genetic background: wild type
  protein stability index: 0.62079 ± 0.00024

## EHVGKQCGYKYH [STP3 C-terminal 12 aa]
[1]
  protein stability index: 0.705 ± 0.023
Genetic background: wild type
  protein stability index: 0.7096 ± 0.0013

## WTKDLGCWSLYK [HIR1 C-terminal 12 aa]
[1]
  protein stability index: 0.716 ± 0.025
Genetic background: wild type
  protein stability index: 0.6994 ± 0.0037

## LIVVLLLLLLVL [SYN8 C-terminal 12 aa]
[1]
  protein stability index: 0.446 ± 0.0069
Genetic background: wild type
  protein stability index: 0.545 ± 0.12

## SLKTFINDVLSF [SLS1 C-terminal 12 aa]
[1]
  protein stability index: 0.7066 ± 0.0021
Genetic background: wild type
  protein stability index: 0.717 ± 0.029

## KWKKNKKRKFTK [UBP10 C-terminal 12 aa]
[1]
  protein stability index: 0.729 ± 0.024
Genetic background: wild type
  protein stability index: 0.6898 ± 0.0066

## GWLQDSNFTKYL [FUN19 C-terminal 12 aa]
[1]
  protein stability index: 0.6978 ± 0.0056
Genetic background: wild type
  protein stability index: 0.808 ± 0.13

## LIALNRYIEDLH [MRP20 C-terminal 12 aa]
[1]
  protein stability index: 0.6999 ± 0.0024
Genetic background: wild type
  protein stability index: 0.695 ± 0.007

## WTNYLEKESEKD [RUD3 C-terminal 12 aa]
[1]
  protein stability index: 0.711 ± 0.04
Genetic background: wild type
  protein stability index: 0.693 ± 0.045

## EYSWEKPKKLEF [SAM2 C-terminal 12 aa]
[1]
  protein stability index: 0.7075 ± 0.0037
Genetic background: wild type
  protein stability index: 0.698 ± 0.035

## DHMQLTGRILVL [YJL132W C-terminal 12 aa]
[1]
  protein stability index: 0.58733 ± 0.00058
Genetic background: wild type
  protein stability index: 0.5716 ± 0.0024

## FVFVRYFNYADS [YCR081C-A C-terminal 12 aa]
[1]
  protein stability index: 0.631 ± 0.023
Genetic background: wild type
  protein stability index: 0.622 ± 0.011

## DELTTVLNQLVR [EXO70 C-terminal 12 aa]
[1]
  protein stability index: 0.6823 ± 0.0024
Genetic background: wild type
  protein stability index: 0.66 ± 0.011

## TDNTVDKFDFYK [RPT3 C-terminal 12 aa]
[1]
  protein stability index: 0.711 ± 0.016
Genetic background: wild type
  protein stability index: 0.71 ± 0.013

## NSKSNGNLFNSQ [NDD1 C-terminal 12 aa]
[1]
  protein stability index: 0.72 ± 0.015
Genetic background: wild type
  protein stability index: 0.682 ± 0.015

## RKEKDPETYLDK [ERG8 C-terminal 12 aa]
[1]
  protein stability index: 0.691 ± 0.023
Genetic background: wild type
  protein stability index: 0.684 ± 0.01

## ELAKKWKQEQAL [CLF1 C-terminal 12 aa]
[1]
  protein stability index: 0.676 ± 0.011
Genetic background: wild type
  protein stability index: 0.667 ± 0.011

## FSSSRDDISFDI [DRS2 C-terminal 12 aa]
[1]
  protein stability index: 0.7 ± 0.023
Genetic background: wild type
  protein stability index: 0.664 ± 0.0014

## SIDETELAKWNE [PEP3 C-terminal 12 aa]
[1]
  protein stability index: 0.734 ± 0.063
Genetic background: wild type
  protein stability index: 0.7 ± 0.048

## YPGAKTLTYTSR [CMI8 C-terminal 12 aa]
[1]
  protein stability index: 0.703 ± 0.013
Genetic background: wild type
  protein stability index: 0.673 ± 0.01

## DGITLDMPLFEF [AOS1 C-terminal 12 aa]
[1]
  protein stability index: 0.7107 ± 0.0043
Genetic background: wild type
  protein stability index: 0.731 ± 0.047

## FEYEPPKFNLSE [GTB1 C-terminal 12 aa]
[1]
  protein stability index: 0.689 ± 0.025
Genetic background: wild type
  protein stability index: 0.659 ± 0.037

## KPIGEAAAIKEK [YLH47 C-terminal 12 aa]
[1]
  protein stability index: 0.696 ± 0.027
Genetic background: wild type
  protein stability index: 0.707 ± 0.044

## VGELDIKFDLKF [RTF1 C-terminal 12 aa]
[1]
  protein stability index: 0.733 ± 0.018
Genetic background: wild type
  protein stability index: 0.696 ± 0.0088

## WLKDQIIGEMTV [CAL4 C-terminal 12 aa]
[1]
  protein stability index: 0.696 ± 0.036
Genetic background: wild type
  protein stability index: 0.678 ± 0.025

## QRCCECASGNGC [YDR442W C-terminal 12 aa]
[1]
  protein stability index: 0.6843 ± 0.0013
Genetic background: wild type
  protein stability index: 0.668 ± 0.035

## EVVRFYTIEAKL [AAT2 C-terminal 12 aa]
[1]
  protein stability index: 0.771 ± 0.032
Genetic background: wild type
  protein stability index: 0.724 ± 0.085

## STICRDIILIPN [CHK1 C-terminal 12 aa]
[1]
  protein stability index: 0.688 ± 0.03
Genetic background: wild type
  protein stability index: 0.6527 ± 0.0013

## EGIETTHNKRIR [AMA1 C-terminal 12 aa]
[1]
  protein stability index: 0.675 ± 0.018
Genetic background: wild type
  protein stability index: 0.666 ± 0.036

## ELSMIMEHFSQQ [RPS12 C-terminal 12 aa]
[1]
  protein stability index: 0.72 ± 0.02
Genetic background: wild type
  protein stability index: 0.7056 ± 0.0036

## AKTSLYTATVIS [PAC11 C-terminal 12 aa]
[1]
  protein stability index: 0.636 ± 0.015
Genetic background: wild type
  protein stability index: 0.6331 ± 0.006

## VFVTGILSTVYI [AIT1 C-terminal 12 aa]
[1]
  protein stability index: 0.6444 ± 0.0011
Genetic background: wild type
  protein stability index: 0.6108 ± 0.0049

## AFTAKWKAENKQ [FYV4 C-terminal 12 aa]
[1]
  protein stability index: 0.691 ± 0.017
Genetic background: wild type
  protein stability index: 0.6671 ± 0.0054

## NPVVNRHIEHDD [COX13 C-terminal 12 aa]
[1]
  protein stability index: 0.701 ± 0.011
Genetic background: wild type
  protein stability index: 0.707 ± 0.017

## EDESLNSSRSTT [RCF3 C-terminal 12 aa]
[1]
  protein stability index: 0.6802 ± 0.0033
Genetic background: wild type
  protein stability index: 0.691 ± 0.013

## RNKKKRFSWVGY [LAA2 C-terminal 12 aa]
[1]
  protein stability index: 0.699 ± 0.066
Genetic background: wild type
  protein stability index: 0.661 ± 0.044

## YTPDQGVSLIDL [ENT2 C-terminal 12 aa]
[1]
  protein stability index: 0.6978 ± 0.005
Genetic background: wild type
  protein stability index: 0.7 ± 0.015

## SLLVEDGGNPTA [YPL150W C-terminal 12 aa]
[1]
  protein stability index: 0.695 ± 0.007
Genetic background: wild type
  protein stability index: 0.69 ± 0.026

## GFRPECLYYYIK [YPR016W-A C-terminal 12 aa]
[1]
  protein stability index: 0.5801 ± 0.0036
Genetic background: wild type
  protein stability index: 0.564 ± 0.024

## DQPFYKKMFGKK [HXT3 C-terminal 12 aa]
[1]
  protein stability index: 0.6926 ± 0.0016
Genetic background: wild type
  protein stability index: 0.698 ± 0.042

## VKKEPLNEESKP [MIA40 C-terminal 12 aa]
[1]
  protein stability index: 0.7041 ± 0.0021
Genetic background: wild type
  protein stability index: 0.679 ± 0.026

## IDASKDQDTMME [NUG1 C-terminal 12 aa]
[1]
  protein stability index: 0.693 ± 0.019
Genetic background: wild type
  protein stability index: 0.736 ± 0.068

## YCPELGKTECFD [FMP30 C-terminal 12 aa]
[1]
  protein stability index: 0.691 ± 0.0061
Genetic background: wild type
  protein stability index: 0.69 ± 0.0088

## NPPERAKVNARS [RCR1 C-terminal 12 aa]
[1]
  protein stability index: 0.675 ± 0.017
Genetic background: wild type
  protein stability index: 0.68 ± 0.042

## KQIVFEIPSQTN [RPS7B C-terminal 12 aa]
[1]
  protein stability index: 0.69872 ± 0.00027
Genetic background: wild type
  protein stability index: 0.673 ± 0.0084

## LFSDKMEPLFKK [AIF1 C-terminal 12 aa]
[1]
  protein stability index: 0.746 ± 0.018
Genetic background: wild type
  protein stability index: 0.738 ± 0.012

## ASEKEKSECVVM [MIY2 C-terminal 12 aa]
[1]
  protein stability index: 0.733 ± 0.017
Genetic background: wild type
  protein stability index: 0.745 ± 0.0097

## YNIKRVLGVVYC [YAL067W-A C-terminal 12 aa]
[1]
  protein stability index: 0.345 ± 0.031
Genetic background: wild type
  protein stability index: 0.362 ± 0.0077

## KLENDISVKVED [NTG1 C-terminal 12 aa]
[1]
  protein stability index: 0.6863 ± 0.0054
Genetic background: wild type
  protein stability index: 0.674 ± 0.014

## LRLKYNDANTKL [VTC1 C-terminal 12 aa]
[1]
  protein stability index: 0.68 ± 0.011
Genetic background: wild type
  protein stability index: 0.6552 ± 0.0047

## RFREEAYYSQFR [TCD2 C-terminal 12 aa]
[1]
  protein stability index: 0.716 ± 0.013
Genetic background: wild type
  protein stability index: 0.672 ± 0.037

## ERAIKTVRYLLY [YOL079W C-terminal 12 aa]
[1]
  protein stability index: 0.678 ± 0.008
Genetic background: wild type
  protein stability index: 0.631 ± 0.021

## MPPEHPFYSHYR [YNL193W C-terminal 12 aa]
[1]
  protein stability index: 0.7283 ± 0.0031
Genetic background: wild type
  protein stability index: 0.729 ± 0.01

## RLIKHINDIFWK [GPI13 C-terminal 12 aa]
[1]
  protein stability index: 0.717 ± 0.077
Genetic background: wild type
  protein stability index: 0.723 ± 0.092

## RHEGQRSKNSVK [GYP7 C-terminal 12 aa]
[1]
  protein stability index: 0.686 ± 0.015
Genetic background: wild type
  protein stability index: 0.689 ± 0.019

## GRGLLGCRIQEL [NAS2 C-terminal 12 aa]
[1]
  protein stability index: 0.703 ± 0.012
Genetic background: wild type
  protein stability index: 0.681 ± 0.032

## ENLTQKKKQSAN [PCT1 C-terminal 12 aa]
[1]
  protein stability index: 0.703 ± 0.0058
Genetic background: wild type
  protein stability index: 0.65 ± 0.011

## ELTRLVDSKRKR [HFA1 C-terminal 12 aa]
[1]
  protein stability index: 0.717 ± 0.045
Genetic background: wild type
  protein stability index: 0.667 ± 0.011

Reference: the supplement of paper PMC10724198
